From publication PMC9655291

Columns and labels:
[1] = target: eel follicle-stimulating hormone receptor wild-type (eel)

EC50 of cAMP accumulation (HTRF) in transfected CHO-K1 cells stimulated with rec-eel FSH, 0.01-1500 ng/mL (eel FSHR-N288Q (eel)): 0.281 µg/mL
EC50 of cAMP accumulation (HTRF) in transfected CHO-K1 cells stimulated with rec-eel FSH, 0.01-1500 ng/mL [1]: 0.201 µg/mL
EC50 of cAMP accumulation (HTRF) in transfected CHO-K1 cells stimulated with rec-eel FSH, 0.01-1500 ng/mL (eel FSHR-N120Q (eel)): 0.283 µg/mL
EC50 of cAMP accumulation (HTRF) in transfected CHO-K1 cells stimulated with rec-eel FSH, 0.01-1500 ng/mL (eel FSHR-N272Q (eel)): 0.327 µg/mL
Substance: recombinant eel FSH (tethered eel FSH β/α) (ligand)
